Results published in PMC8565817.

What was measured:
Bemarituzumab (human) = assay: SPR
[1] = target: FPA144-F (the fucosylated version of bemarituzumab) (human); assay: SPR

- Kd (Bemarituzumab (human)): 9.2 nM
- Kd [1]: 207 nM
Substance: human Fc gamma receptor IIIa (V158)
